In the DeepSol protein solubility set:

assay: soluble on expression in E. coli; label from the status in PepcDB or PDB records

Sequence	soluble on expression in E. coli
MAHHHHHHMYAIADTDDILIRSNPCRLSVNGVHISVCNEDVVGDMRDRMVERWPTADGSLRRVVEALVNGRLYVPLYSLPVATADLKHLPHLRMDYVPSQNELLEIKPAAAALASSTATKGDRRGNADGSDATTSTSGASSSRGWETVFSVAEQPSTDMAAWLQHKVKRAKLEDAAGDNEEGDAASAPGGPVTPSTPTASSKTEYLPHIMFLPSTRPQFATVTHQSEEVDGADIDSAESASGVLVVNQEVWSTRSSPKFELRVAEVTIPNTDLVLRRGATSTNGVTCGVLHIYSA	soluble
MNVKEVVTEEQLHDVLPVLQQLRTKLSKEETSSLFRNMKEENYKLFSLRNEDDEVVSLAGVAICTNFYNKKHVFVYDLVTAEAHRSKRHGKVLLSYIENWGKENECESIVLTSAFSRIDAHRFYEREGYDKVSYSFHKEL	not soluble
ATEATNATNNQSTQVSQATSQPINFQVQKDGSSEKSHMDDYMQHPGKVIKQNNKYYFQTVLNNASFWKEYKFYNANNQELATTVVNDNKKADTRTINVAVEPGYKSLTTKVHIVVPQINYNHRYTTHLEFEKAIPTLADAAK	soluble
MGSDKIHHHHHHMEKQSDSYYISAVQAGDTESFAPLVERYSDMLYALLCRLLQDEEDAADLLQDTFVKAFRHISRFDGRSSFSTWIYRIAYNEAIDHLRRHKAYVTDRVEELPDVPDEDLEPSGEDPELLQQALDSLPAADKALLLMFYSDDLSVRDIAEVTGMSESNVKVKLHRLRTKLYKMMRK	not soluble
MVASESILQALQTVIDPNTGKDLVTTRAIRNLEVNGADVTFDAQLGYPAKSQIPALRRALIAAARGVAGVDNVSVNMQSVIETHAVPRGIALLPNVKNVIAVASGKGGVGKSTTAVNLALALAAEGARVGLLDADIYGPSQAQMMGIEGRPQSEDGKTMEPLENYGVQVMSIGFLVDADEAMIWRGPMAVQALEQLLRQTNWKNLDYLVIDMPPGTGDIHLTLSQKVPVTGAVIVTTPQDIALLDARKGVKMFEKVGVPIVGVVENMAVHVCSQCGHAEHIFGQGGGQRMAQDYGLAYLGALPLDINIRQQADGGRPSVVADPDGEVAGLYKDVARQVAVAVAAMGKDYSSKFSSISISRAPAGGAAALEHHHHHH	soluble
MRHRGGRGFRGWWLASTILLLVAEKPSHGYELAERLAEFGIEIPGIGHMGNIYRVLADLEESGFLSTEWDTTVSPPRKIYRITPQGKLYLREILRSLEDMKRRIETLEERIKRVLQEE	soluble
GANPTTAETLDATRRVDDATVAIRCAINNLIVELIRGTGSYNRSSFESSSGLVWTSGPAGEGSYSITTPSQFVFLSSAWADPIELINLCTNALGNQFQTQQARTVVQRQFSEVWKPSPQVTVRFPDSDFKVYRYNAVLDPLVTALLGAFDTRNRIIEVENQ	soluble
MDHHHHHHHHMPRTTGMNVAVVGGGISGLAVAHHLRSRGTDAVLLESSARLGGAVGTHALAGYLVEQGPNSFLDREPATRALAAALNLEGRIRAADPAAKRRYVYTRGRLRSVPASPPAFLASDILPLGARLRVAGELFSRRAPEGVDESLAAFGRRHLGHRATQVLLDAVQTGIYAGDVEQLSVAATFPMLVKMEREHRSLILGAIRAQKAQRQAALPAGTAPKLSGALSTFDGGLQVLIDALAASLGDAAHVGARVEGLAREDGGWRLIIEEHGRRAELSVAQVVLAAPAHATAKLLRPLDDALAALVAGIAYAPIAVVHLGFDAGTLPAPDGFGFLVPAEEQRRMLGAIHASTTFPFRAEGGRVLYSCMVGGARQPGLVEQDEDALAALAREELKALAGVTARPSFTRVFRWPLGIPQYNLGHLERVAAIDAALQRLPGLHLIGNAYKGVGLNDCIRNAAQLADALVAGNTSHAP	soluble
MSLSIFEHFQARYEAAKDEELSIQDFLALCKENKSAYANAAERLLLAIGEPEMIDTSKHSRLSRIFSNRVIARYKTFEDFYGMEEAIEQIVAYLKHAAQGLEERKQILYLLGPVGGGKSSLAEKLKALMQQMPIYVLSANGQRSPVNDHPFCLFDVNEDGELLKQEYGIDRRYLRSIMSPWAAKRLHEFGGDITKFKVVKVRPSILDQIAVAKTEPGDENNQDISSLVGKVDIRKLEHFSQDDPDAYSYSGALCRANQGLMEFVEMFKAPIKVLHPLLTATQEGNYNGTEGLSALPFDGMILAHSNESEWQTFRNNKNNEAFLDRVYIVKVPYCLRVSEEVKIYQKLLDHSELSKAPCAPSTLDLLAQFSVLSRLKVPENSSLFSKMRVYDGETLKDTDPKAKSYQEYRDYAGVDEGMSGLSTRFAFKILSRVFNFDHSEVAANPVHLFYVIEQQVEREGHHHHHH	not soluble
MSLKRAEPQSLQVSQNELQAMAYSDPLTGLGNRYRLRDKIRMLASERSSDPAPFTVGIANIDGFKPINDLFGVQAGDEILCQVAHRLKACIPDGAIVTRHDGDEFAFVLPLIFERIGAERIGNMIKDVLSAPYDLGDRNVRLSSSFGFAIYPFAGDEYEDLLKSAETALYRSKRRGRGQITVYSREIAQEMKRATQLEQALRNAIITDAIDVHFQPIVRLEEAKVIGFEALARWNDPDLGFVSPAVFVPLAEERGFIDALSEALLRKAAEAALFWPRELFLSFNLSSAQLMDPSTSDNILSILSRVGLDPHRLELEITETAVMTSADTAQRIISELQSAGVRISLDDFGTGQSSLGRLRDFTFDKVKIDRAFVSRISSDRPSEHIIKAIVAMCEGLDLEVVAEGIEERVEEEKLRALGCAMGQGYFYGRPVDAAATQRYLHENYREILSDISEGHHHHHH	soluble
ASMRPVRLMKVFVTRRIPAEGRVALARAADCEVEQWDSDEPIPAKELERGVAGAHGLLCLLSDHVDKRILDAAGANLKVISTMSVGIDHLALDEIKKRGIRVGYTPDVLTDTTAELAVSLLLTTCRRLPEAIEEVKNGGWTSWKPLWLCGYGLTQSTVGIIGLGRIGQAIARRLKPFGVQRFLYTGRQPRPEEAAEFQAEFVSTPELAAQSDFIVVACSLTPATEGLCNKDFFQKMKETAVFINISRGDVVNQDDLYQALASGKIAAAGLDVTSPEPLPTNHPLLTLKNCVILPHIGSATHRTRNTMSLLAANNLLAGLRGEPMPSELKL	soluble
MQTPSKKYVVDIWSDFVCPWCWIAKRRFENALNRSGMQDDVQVNVRAYRLAANQAPEPMIGALKRKLGNPASADSMMSTVSKYGRADGLDYRFDTMMFGDTADAHILVKAVEDTAVKKRLVEALYEQSTSHGRSLFDRSSLEAIAREVGVSDESIQLAWSSVELRNEMKDDESFAAQLGSGVPLFVFDSSFSVSGAQPDAVFLEALNKMVANSNPEDSSMMGQVCSIDGCKVLEHHHHHH	not soluble
GQSLRSFQKQNEDNDKRQQILRSINVNVSSSEAETKYNELIKEAFLVNENGEKVEGDAFATDVVKAATEHQYPVFVANVDGQPKYIMALHGAGLWGPLWGYISVDSDKNTIYGADFSHQGETPGLGAEISKPVFSNEFKGKKIFMSGEFKSVAVVKPGKSVAGQDYVDGISGGTITSKGVDEMLFNSLSGYVKFLTSQN	soluble
VGVGYFDTIEIKTILSLLQIIDNPMQDIPLISVLKSPIFGFTPEDLIDIRVQSKDKIFYEVLKSTAEYDGFTDSQNENESEFIPSEECINKSKDFLIKLKEFKEKSMYMSTDEFIWYLYTRTGYYAYVGALPGGSQRQANLKVLFERAKQFEETSLKGIFNFVNFIEKLKKSSSDMGSAKT	soluble
MSLGKEEEYRITNVKIFKDTPVWELALAVKNEKTRTIEKLAKENPELLNYQEPKYGATLLLWAVGMEKYKSAEALLKCGADPNIASTVDGMTPLYLAAGFSWIDNYAKKDPKFVKLLLKYNADPNITYGGNAIIEPGTSPLMNSIRCGIEKTKALVEAGAYINYKTKSGTTAAIKALLAGQNATLEALEYAHYLIVEKKAKVTDPYYPWLVYEENNIQELYPVDILRRWVYPLDSEEYRIKMEIVEEFARQGVNYWDTEIDKYTLEQIKKLYPDTWEEYIKRYEGHHHHHH	soluble
MILSSYNTIQSVFCCCCCCSVQKRQMRTQISLSTDEELPEKYTQHRRPWLSQLSNKKQSNTGRVQPSKRKPLPPLPPSEVAEEKIQVKALYDFLPREPCNLALRRAEEYLILEKYNPHWWKARDRLGNEGLIPSNYVTENKITNLEIYEWYHRNITRNQAEHLLRQESKEGAFIVRDSRHLGSYTISVFMGARRSTEAAIKHYQIKKNDSGQWYVAERHAFQSIPELIWYHQHNAAGLMTRLRYPVGLMGSCLPATAGFSYGKVCTHAEVK	soluble
MSLNPYKIEVVDHTKLVESNTSINEKEEKSISSVEERANLYEDDEENDEEEDSNEFASEAIPFYSVLGEKDYFYFPSEQIQEHYSKRIPGYFMPNNYYCVNYDFTYNPVKKNVNGDEDDDDDEEEEEGDSGTDRKVKTQEKFRASFIFIDTWALMVGFPIIRNYRAFREQFNWLSKTLYESAKKSDWIFVVGHHPLISSGRRSDNYSYEEHSFHDIIRDFLFNYHVDAYFSAHDHLMEYIKFGSVDLFINGSSSRVLFDNSSMGRGYFGKIIGKLYPLSCYVLKTIHTGLKPKGCNINRYSKWYNKSDIGFSTHKLTKDELVTQFISSRTGKPLSEKIITKNKKHEREGHHHHHH	soluble
MYIMKQSGWLELICGSMFSGKSEELIRRVKRATYAKQEVRVFKPVIDNRYSEAAVVSHNGTSMTSYAISSAADIWDHISESTDVVAVDEVQFFDQEIVEVLSSLADKGYRVIAAGLDMDFRGEPFGVVPNIMAIAESVTKLQAVCSVCGSPASRTQRLIDGKPASYDDPVILVGAAESYEARCRHHHEVPGKSKKLEHHHHHH	soluble
MGSDKIHHHHHHMPFANPQEAIDFLDKHPQVQHVEVFIIDPNGIPRGKLLHRQEVLSMYRHGRPLPSTILGLTVQGDDVEDTGLVWEVGDADCLAFPIEGGLLMQPWRAQPTAQVHLTMHPEAGMPAAVADPRLVLSKVIDSLQADGFYPVMAAELEFFLLDQRFDANGRPQPAMQSDGHRPHQTQVYGILELERLQPFLDDLYHACEVQGIPARTAISEYAPGQVEITLEHRFDALQAMDEAVRYKRLVKGVAAKHGMQACFMAKPFGELAGSGMHMHVSLADADGNNRFASDNPEGTPELTQSIAGMMATLEDAQLLFCPNANSFRRFQSASYAPIAKTWGVNNRTVSFRVPGGPAPSRHVEHRICGADANPYLAAAAILAACHHGIRNQLSPGQAIVGNGYEGKHQTLPTDWLSALTNFERSEWMKSVLGEDFHRIYGRIKRAEYQEFMAEVGQQDWHWYLTHA	not soluble
MFIRGREMISAVIEALIGSISLSTGLHTKKIDANIRYLQQYEWFRIIYEDEKYRKLFITNYKVRSYLQSKLRVRLLVKNKNAQRRFLKLVEEQIEKRHTN	not soluble
MGSDKIHHHHHHMKKKLALVVVHEIYGVNDHMHHVTDHFTSSHIDVFCPNLLQSQPAFHYSDEEKAYHFFMNHIGFEDGKKQIETFITHLSSRYTHIGLIGFSVGATISWLCSNNPKIDFIIGCYGSRIRDYIHMKPTCATLLIFPEKEASFSVPSFIQSLQQQKNPLLEIYQLHGEHGFLNPYTEKYNGHSTNQAYNLIDSFLVKNTLIKEM	not soluble
FSGSEATAAILSRAPWSLQSVNPGLKTNSSKEPKFTKCRSPERETFSCHWTDEVHHGTKNLGPIQLFYTRRNTQEWTQEWKECPDYVSAGENSCYFNSSFTSIWIPYCIKLTSNGGTVDEKCFSVDEIVQPDPPIALNWTLLNVSLTGIHADIQVRWEAPRNADIQKGWMVLEYELQYKEVNETKWKMMDPILTTSVPVYSLKVDKEYEVRVRSKQRNSGNYGEFSEVLYVTLPQMSQ	soluble
